Results: patent US20160193294A1 (UNIVERSITY OF QUEENSLAND, published 2016)

Experiments:
[1] = biological target: T1, recombinant human E-selectin extracellular domain fused with the Fc fragment of human IgM (human, UniProt P16581 22-556); test: flow cytometry: soluble selectin-IgMFc on bone marrow granulocytes of wild-type and knock-out mice
T1 construct: extracellular domain; Used as COS7 supernatant (pCDM8 plasmid); It was pre-complexed with Cy5-conjugated donkey anti-human IgM F(ab)'2 before the assay; also called E-selectin-IgMFc; selectin-IgMFc; not shown: Fc fragment of human IgM
T1 sequence (looked up): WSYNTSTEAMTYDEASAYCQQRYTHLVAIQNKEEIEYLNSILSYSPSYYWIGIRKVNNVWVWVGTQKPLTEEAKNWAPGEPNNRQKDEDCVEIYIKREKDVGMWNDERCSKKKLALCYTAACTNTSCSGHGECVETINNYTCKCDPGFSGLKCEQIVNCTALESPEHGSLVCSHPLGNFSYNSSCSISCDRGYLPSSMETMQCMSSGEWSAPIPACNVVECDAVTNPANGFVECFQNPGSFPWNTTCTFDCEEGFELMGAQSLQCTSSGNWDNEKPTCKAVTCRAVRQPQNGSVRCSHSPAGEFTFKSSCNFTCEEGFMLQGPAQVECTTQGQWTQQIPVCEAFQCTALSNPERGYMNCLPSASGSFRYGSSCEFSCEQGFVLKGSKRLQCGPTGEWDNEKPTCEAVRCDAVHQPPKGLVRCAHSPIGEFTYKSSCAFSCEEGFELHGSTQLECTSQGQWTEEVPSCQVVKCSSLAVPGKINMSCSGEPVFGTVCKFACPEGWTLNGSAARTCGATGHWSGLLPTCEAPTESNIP
Excerpt: In a second assay, binding of recombinant E-selectin and P-selectin was directly measured in solution by flow cytometry. For this purpose, recombinant human P-selectin or E-selectin extracellular domains fused with the Fc portion of human IgM were used as selectins required prior clustering to bind to their cellular receptors. As IgM are decameric proteins, each fusion recombinant protein is a decamer or either P-selectin or E-selectin. The clustering resulting from decamerization of selectin enables them to directly interact in solution with their cellular receptors. The inventors therefore measured the binding of recombinant selectin-IgM Fc fusion proteins to bone marrow cells isolated from wild-type, PSGL1−/−, CD44−/− or PSGL1−/−CD44−/− double KO mice. Detection by flow cytometry was performed by pre-complexing the selectin-IgMFc fusion proteins with a Cy5-conjubated donkey anti-human IgM antibody. […] Thus these experiments confirm that PSGL1 and CD44 are necessary and sufficient for E-selectin binding to mature granulocytes, hematopoietic stem cells can bind and adhere to E-selectin via alternative receptors which are not encoded by the PSGL1 and C44 genes.
Prior to the experiment, recombinant selectin-IgMFc fusion proteins were complexed with Cy5-conjugated donkey IgG F(ab)′2 fragments anti-human IgM. […]

[2] = biological target: T2, recombinant protein made of the entire extracellular domain of mouse P-selectin fused to the Fc fragment of … (mouse; human, UniProt Q01102 42-709); test: cell adhesion assay: calcein-labelled cells of wild-type and knock-out mice on wells coated with the fusion protein
T2 construct: extracellular domain; Bought from R&D Systems and adsorbed to polystyrene wells at 3 ug/ml; also called muPsel-IgG1Fc; muP-selectin-IgG1Fc; not shown: Fc fragment of human IgG1
T2 sequence (looked up): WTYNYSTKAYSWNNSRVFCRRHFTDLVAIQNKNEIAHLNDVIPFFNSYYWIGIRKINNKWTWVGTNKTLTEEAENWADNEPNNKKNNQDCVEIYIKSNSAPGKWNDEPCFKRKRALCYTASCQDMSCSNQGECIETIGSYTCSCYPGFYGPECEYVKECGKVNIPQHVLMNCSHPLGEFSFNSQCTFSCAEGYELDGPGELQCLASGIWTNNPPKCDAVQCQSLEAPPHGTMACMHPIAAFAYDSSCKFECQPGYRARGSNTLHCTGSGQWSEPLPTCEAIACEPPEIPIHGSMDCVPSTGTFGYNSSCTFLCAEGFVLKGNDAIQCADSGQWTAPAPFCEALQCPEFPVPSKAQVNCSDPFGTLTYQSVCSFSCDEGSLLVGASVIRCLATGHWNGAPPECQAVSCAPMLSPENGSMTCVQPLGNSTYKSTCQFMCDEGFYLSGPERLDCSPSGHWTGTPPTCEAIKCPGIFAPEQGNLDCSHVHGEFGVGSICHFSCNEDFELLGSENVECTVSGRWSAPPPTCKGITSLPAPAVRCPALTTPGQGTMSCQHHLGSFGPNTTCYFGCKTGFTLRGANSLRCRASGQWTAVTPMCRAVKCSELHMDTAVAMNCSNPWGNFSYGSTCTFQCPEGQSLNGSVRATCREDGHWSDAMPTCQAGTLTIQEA
Protocol: 96-well polystyrene cell culture plates were coated overnight at 4*C with 50 μL per well of phosphate buffered saline containing 3 μg/ml of recombinant proteins made of the entire extracellular domain of mouse E-selectin, P-selectin or VCAM-1/CD106 fused to the Fc fragment of human IgG1 (muEsel-IgG1Fc, muPsel-IgG1Fc, or muVCAM1-IgG1Fc respectively, from R&D Systems)) as previously described 8. Prior to the experiment, plates were flicked to remove excess coating solution and filled with Hepes buffered saline supplemented with 2% bovine serum albumin to block non-specific adhesion to plastic surfaces. […]
Bone marrow cells from CD44 KO, PSGL1 KO and CD44-PSGL1 double KO mice were stained with FITC-conjugated biotinylated rat monoclonal antibodies specific for CD3, CD5. […] Lineage-negative CD117-positive hematopoietic progenitor cells were then sorted by fluorescence activated cell sorting on an Aria cell sorter (BD Biosciences).
Sorted Lineage-negative CD117-positive hematopoietic progenitor cells when then washed and resuspended in cell adhesion buffer and labelled with the intracellular fluorescent dye calcein-AM (Molecular Probes) for 40 minutes at 37° C. […] The fluorescence contained in the remaining adherent cells was measured on a Fluorostar plate fluorometer following exciting at 488 nm using a 530 nm filter.

B1: P-selectin glycoprotein ligand-1 (mouse, on bone marrow cells) (receptor, UniProt Q62170 42-397, looked up)
chain: QVVGDDDFEDPDYTYNTDPPELLKNVTNTVAAHPELPTTVVMLERDSTSAGTSERATEKIATTDPTAPGTGGTAVGMLSTDSATQWSLTSVETVQPASTEVETSQPAPMEAETSQPAPMEAETSQPAPMEAETSQPAPMEADTSQPAPMEAETSQPAPNEAETSKPAPTEAETSKPAPTEAETTQLPRIQAVKTLFTTSAATEVPSTEPTTMETASTESNESTIFLGPSVTHLPDSGLKKGLIVTPGNSPAPTLPGSSDLIPVKQCLLIILILASLATIFLVCTVVLAVRLSRKTHMYPVRNYSPTEMICISSLLPEGGDGAPVTANGGLPKVQDLKTEPSGDRDGDDLTLHSFLP
notes: whole, on cells; also called PSGL-1; PSGL1
binding result [1]: binds
binding result [2]: binds
